T1: GRIP1_7, Q9Y3R0
T1 sequence (Q9Y3R0 999-1096, limits assumed, looked up): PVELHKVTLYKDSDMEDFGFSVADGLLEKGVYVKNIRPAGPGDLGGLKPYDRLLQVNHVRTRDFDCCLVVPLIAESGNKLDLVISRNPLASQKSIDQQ

T2: RADIL, Q96JH8
T2 sequence (Q96JH8 971-1071, limits assumed, looked up): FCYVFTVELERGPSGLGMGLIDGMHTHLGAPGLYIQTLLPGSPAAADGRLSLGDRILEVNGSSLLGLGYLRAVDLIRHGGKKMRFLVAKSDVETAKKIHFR

T3: MPDZ_5, O75970
T3 sequence (O75970 695-796, limits assumed, looked up): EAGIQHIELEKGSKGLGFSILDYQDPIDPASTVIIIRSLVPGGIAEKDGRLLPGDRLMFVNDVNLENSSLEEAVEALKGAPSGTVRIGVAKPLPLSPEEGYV

T4: RAPGEF6, Q8TEU7
T4 sequence (Q8TEU7 525-625, limits assumed, looked up): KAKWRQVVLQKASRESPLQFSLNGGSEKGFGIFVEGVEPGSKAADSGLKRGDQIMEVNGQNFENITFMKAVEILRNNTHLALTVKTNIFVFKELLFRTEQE

T5: MPDZ_10, O75970
T5 sequence (O75970 1624-1722, limits assumed, looked up): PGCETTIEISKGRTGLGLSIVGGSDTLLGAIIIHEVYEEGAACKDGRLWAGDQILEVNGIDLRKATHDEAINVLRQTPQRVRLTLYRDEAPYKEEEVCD

T6: MPP6, Q9NZW5
T6 sequence (Q9NZW5 125-219, limits assumed, looked up): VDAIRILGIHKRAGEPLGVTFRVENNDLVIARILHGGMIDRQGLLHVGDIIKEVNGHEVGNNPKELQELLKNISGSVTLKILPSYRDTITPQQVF

T7: CARD11, Q9BXL7
T7 sequence (Q9BXL7 662-765, limits assumed, looked up): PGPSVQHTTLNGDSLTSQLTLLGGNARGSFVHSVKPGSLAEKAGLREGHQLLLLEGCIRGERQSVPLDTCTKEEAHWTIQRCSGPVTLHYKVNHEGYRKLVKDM

T8: DFNB31_1, Q9P202
T8 sequence (Q9P202 135-233, limits assumed, looked up): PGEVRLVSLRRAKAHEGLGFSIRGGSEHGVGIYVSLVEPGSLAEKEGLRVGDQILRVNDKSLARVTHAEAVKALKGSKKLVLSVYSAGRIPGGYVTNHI

T9: LRRC7, Q96NW7
T9 sequence (Q96NW7 1440-1537, limits assumed, looked up): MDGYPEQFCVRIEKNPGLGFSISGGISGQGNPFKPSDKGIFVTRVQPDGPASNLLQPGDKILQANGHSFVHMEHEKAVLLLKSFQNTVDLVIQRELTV

T10: GRIP1_2, Q9Y3R0
T10 sequence (Q9Y3R0 145-248, limits assumed, looked up): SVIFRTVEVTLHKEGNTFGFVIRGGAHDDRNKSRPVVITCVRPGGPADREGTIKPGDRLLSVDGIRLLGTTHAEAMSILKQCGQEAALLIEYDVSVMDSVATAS

T11: MPP7, Q5T2T1
T11 sequence (Q5T2T1 134-230, limits assumed, looked up): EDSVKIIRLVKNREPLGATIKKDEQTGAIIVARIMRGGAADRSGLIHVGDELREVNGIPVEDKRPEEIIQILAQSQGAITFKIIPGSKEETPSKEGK


What was measured:
Experiment in all cases: holdup assay
Design in all cases: key: below the threshold = too weak to quantify, mostly under pKd 3.1 to 4
Conditions in all cases: plain residues with an end cap or a label only (N-terminal biotin on a linker: ado-ado)
HTRA2, O43464 = molecular target: HTRA2, O43464
HTRA2, O43464, sequence (O43464 355-458): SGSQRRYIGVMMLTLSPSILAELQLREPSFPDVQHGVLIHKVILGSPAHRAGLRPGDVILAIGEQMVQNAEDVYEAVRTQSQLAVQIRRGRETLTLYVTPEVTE

IL16_1, Q14005 = molecular target: IL16_1, Q14005
IL16_1, Q14005, sequence (Q14005 210-306): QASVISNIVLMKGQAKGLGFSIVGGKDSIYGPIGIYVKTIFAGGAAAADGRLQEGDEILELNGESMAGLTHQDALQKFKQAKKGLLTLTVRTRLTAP

LDB3, O75112 = molecular target: LDB3, O75112
LDB3, O75112, sequence (O75112 1-94): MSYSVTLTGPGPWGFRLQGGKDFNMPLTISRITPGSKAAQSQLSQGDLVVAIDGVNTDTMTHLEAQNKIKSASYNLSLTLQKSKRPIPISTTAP

GRIP1_7, Q9Y3R0 = molecular target: T1, GRIP1_7, Q9Y3R0
RADIL, Q96JH8 = molecular target: T2, RADIL, Q96JH8
MPDZ_5, O75970 = molecular target: T3, MPDZ_5, O75970
NHERF4_1, Q86UT5-2 = molecular target: NHERF4_1, Q86UT5-2
NHERF4_1, Q86UT5-2, sequence (Q86UT5 other isoform, or with tags, fused parts or gaps): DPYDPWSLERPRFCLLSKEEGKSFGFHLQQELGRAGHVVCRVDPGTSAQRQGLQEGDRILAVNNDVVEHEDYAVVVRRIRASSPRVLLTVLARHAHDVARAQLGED

GRIP2_6, Q9C0E4 = molecular target: GRIP2_6, Q9C0E4
GRIP2_6, Q9C0E4, sequence (Q9C0E4 648-740): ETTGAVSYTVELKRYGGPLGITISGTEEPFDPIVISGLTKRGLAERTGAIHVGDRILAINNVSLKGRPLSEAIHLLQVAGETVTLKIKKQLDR

MAGI3_2, Q5TCQ9 = molecular target: MAGI3_2, Q5TCQ9
MAGI3_2, Q5TCQ9, sequence (Q5TCQ9 398-503): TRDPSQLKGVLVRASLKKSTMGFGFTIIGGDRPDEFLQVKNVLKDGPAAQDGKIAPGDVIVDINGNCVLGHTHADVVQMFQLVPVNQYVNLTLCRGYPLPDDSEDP

RAPGEF6, Q8TEU7 = molecular target: T4, RAPGEF6, Q8TEU7
MPDZ_10, O75970 = molecular target: T5, MPDZ_10, O75970
FRMPD4, Q14CM0 = molecular target: FRMPD4, Q14CM0
FRMPD4, Q14CM0, sequence (Q14CM0 67-160): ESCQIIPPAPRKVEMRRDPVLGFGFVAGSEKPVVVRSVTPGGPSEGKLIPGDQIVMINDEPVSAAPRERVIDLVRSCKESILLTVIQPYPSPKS

Inadl_2, Q8NI35 = molecular target: Inadl_2, Q8NI35
Inadl_2, Q8NI35, sequence (Q8NI35 238-335): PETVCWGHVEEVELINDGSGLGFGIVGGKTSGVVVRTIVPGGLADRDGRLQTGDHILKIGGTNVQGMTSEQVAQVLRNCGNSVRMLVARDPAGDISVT

GOPC, Q9HD26 = molecular target: GOPC, Q9HD26
FRMPD2_2, Q68DX3 = molecular target: FRMPD2_2, Q68DX3
FRMPD2_2, Q68DX3, sequence (Q68DX3 944-1038): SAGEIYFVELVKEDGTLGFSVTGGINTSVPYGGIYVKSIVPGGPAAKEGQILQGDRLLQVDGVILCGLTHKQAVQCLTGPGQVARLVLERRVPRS

MPP6, Q9NZW5 = molecular target: T6, MPP6, Q9NZW5
FRMPD3, Q5JV73 = molecular target: FRMPD3, Q5JV73
FRMPD3, Q5JV73, sequence (Q5JV73 12-100): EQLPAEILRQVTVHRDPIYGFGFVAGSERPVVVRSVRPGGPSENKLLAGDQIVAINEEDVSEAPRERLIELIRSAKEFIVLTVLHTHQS

MAST1, Q9Y2H9 = molecular target: MAST1, Q9Y2H9
MAST1, Q9Y2H9, sequence (Q9Y2H9 962-1065): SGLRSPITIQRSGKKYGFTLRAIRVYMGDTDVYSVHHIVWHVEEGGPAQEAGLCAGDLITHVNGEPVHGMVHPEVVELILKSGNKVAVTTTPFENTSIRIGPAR

CARD11, Q9BXL7 = molecular target: T7, CARD11, Q9BXL7
DFNB31_1, Q9P202 = molecular target: T8, DFNB31_1, Q9P202
MAGI2_5, Q86UL8 = molecular target: MAGI2_5, Q86UL8
MAGI2_5, Q86UL8, sequence (Q86UL8 915-1017): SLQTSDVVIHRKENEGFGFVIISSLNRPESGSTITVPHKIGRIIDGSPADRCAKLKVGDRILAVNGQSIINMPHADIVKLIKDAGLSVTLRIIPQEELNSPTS

Inadl_4, Q8NI35 = molecular target: Inadl_4, Q8NI35
Inadl_4, Q8NI35, sequence (Q8NI35 547-651): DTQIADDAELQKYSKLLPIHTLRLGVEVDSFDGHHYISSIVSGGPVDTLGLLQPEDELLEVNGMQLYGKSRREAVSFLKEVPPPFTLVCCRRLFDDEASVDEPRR

LRRC7, Q96NW7 = molecular target: T9, LRRC7, Q96NW7
GRIP1_2, Q9Y3R0 = molecular target: T10, GRIP1_2, Q9Y3R0
DLG4_2, P78352 = molecular target: DLG4_2, P78352
DLG4_2, P78352, sequence (P78352 155-259): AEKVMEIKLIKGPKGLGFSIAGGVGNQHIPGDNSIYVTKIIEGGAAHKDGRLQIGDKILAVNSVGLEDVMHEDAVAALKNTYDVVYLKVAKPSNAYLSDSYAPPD

MPP7, Q5T2T1 = molecular target: T11, MPP7, Q5T2T1

Binder | pKd (HTRA2, O43464) | pKd (IL16_1, Q14005) | pKd (LDB3, O75112) | pKd (GRIP1_7, Q9Y3R0) | pKd (RADIL, Q96JH8) | pKd (MPDZ_5, O75970) | pKd (NHERF4_1, Q86UT5-2) | pKd (GRIP2_6, Q9C0E4) | pKd (MAGI3_2, Q5TCQ9) | pKd (RAPGEF6, Q8TEU7) | pKd (MPDZ_10, O75970) | pKd (FRMPD4, Q14CM0) | pKd (Inadl_2, Q8NI35) | pKd (GOPC, Q9HD26) | pKd (FRMPD2_2, Q68DX3) | pKd (MPP6, Q9NZW5) | pKd (FRMPD3, Q5JV73) | pKd (MAST1, Q9Y2H9) | pKd (CARD11, Q9BXL7) | pKd (DFNB31_1, Q9P202) | also measured
PEYLGLDVPV [ERBB2, P04626] | below the threshold | 3.65 | below the threshold | 3.52 | below the threshold | below the threshold | below the threshold | below the threshold | below the threshold | below the threshold | below the threshold | 4.39 | below the threshold | below the threshold | below the threshold | below the threshold | 3.78 | 3.98 | below the threshold | below the threshold | pKd (MAGI2_5, Q86UL8): below the threshold; pKd (Inadl_4, Q8NI35): below the threshold; pKd (LRRC7, Q96NW7): below the threshold; pKd (GRIP1_2, Q9Y3R0): below the threshold; pKd (DLG4_2, P78352): 3.48; pKd (MPP7, Q5T2T1): below the threshold
HLRARKSEWV [GJD4, Q96KN9] | 3.94 | below the threshold | below the threshold | below the threshold | 4.85 | 4.06 | 4.06 | below the threshold | 4.04 | 3.5 | below the threshold | below the threshold | below the threshold | below the threshold | below the threshold | below the threshold | below the threshold | below the threshold | below the threshold | below the threshold | pKd (MAGI2_5, Q86UL8): below the threshold; pKd (Inadl_4, Q8NI35): below the threshold; pKd (LRRC7, Q96NW7): 3.81; pKd (GRIP1_2, Q9Y3R0): below the threshold; pKd (DLG4_2, P78352): 4.11; pKd (MPP7, Q5T2T1): below the threshold
AKPSRISTVV [IQSEC2, Q5JU85] | below the threshold | below the threshold | below the threshold | below the threshold | 4.32 | below the threshold | 3.48 | below the threshold | 5.42 | below the threshold | 3.57 | below the threshold | below the threshold | 4.35 | below the threshold | below the threshold | below the threshold | 4.28 | below the threshold | below the threshold | pKd (MAGI2_5, Q86UL8): 4.44; pKd (Inadl_4, Q8NI35): below the threshold; pKd (LRRC7, Q96NW7): below the threshold; pKd (GRIP1_2, Q9Y3R0): below the threshold; pKd (DLG4_2, P78352): 5.31; pKd (MPP7, Q5T2T1): below the threshold
TSQESEDTYL [TBC1D10A, Q9BXI6] | below the threshold | below the threshold | below the threshold | below the threshold | below the threshold | below the threshold | 3.97 | below the threshold | below the threshold | below the threshold | below the threshold | 5.3 | below the threshold | below the threshold | below the threshold | below the threshold | 4.39 | 4.71 | below the threshold | 3.62 | pKd (MAGI2_5, Q86UL8): below the threshold; pKd (Inadl_4, Q8NI35): below the threshold; pKd (LRRC7, Q96NW7): 3.85; pKd (GRIP1_2, Q9Y3R0): below the threshold; pKd (DLG4_2, P78352): below the threshold; pKd (MPP7, Q5T2T1): below the threshold

— paper PMC9482650, “Quantitative fragmentomics allow affinity mapping of interactomes” (Nature Communications, 2022)
